The source of these data is article PMC2755895 (The Journal of Biological Chemistry, 2009).

Test [1] has as its target PC4CTD (Homo sapiens, UniProt P53999). The test can be described thus: Fluorescence titration of p53TAD peptides. Conditions: in words. Type of test: binding.
Test [2] addresses mutation of single hydrophobic residues to alanine (p53N peptides).
Test [3] addresses hDp53N-(10–57)-aspartic acid mimic (UniProt P04637). Put plainly: fluorescence polarisation.
Test [4] addresses QS2 W53Q/F54S p53N-(35–57) (UniProt P04637). The test can be described thus: fluorescence polarisation. A general note: Polarisation of emitted light reports the rotation of a fluorescent probe.
Test [5] concerns subdomains of p300. Conditions: cited from earlier work.
Test [6] concerns N-terminal domain of MDM2. The note with it: cited from earlier work.
Test [7] has as its target p53 DNA-binding domain.

pKd: −log10 of the molar value. No end group written: not given here.

Turning to “D41K/D42K/D48K/D49K/E51K p53N-(35–57) (LPSQAMKKLMLSPKKIKQWFTED-{K(methoxycoumarin)})”, the “quantifiability of binding to PC4CTD” value in test [1] is reported as “no quantifiable binding”.

Take “PC4 C-terminal DNA-binding domain, PC4CTD-(61–127) (from UniProt P53999 61-127) (domain or fragment)”: the pKd – broadly, the negative decadic logarithm of the Kd, by convention in mol/L – was 4.80 to 4.85 in test [2], 5.30 in test [3] and 4.70 in test [4].

On to “TAD1: p53 transactivation subdomain TAD1-(1–40)”, for which the “binding to p300 subdomains” value in test [5] was “bind only weakly”. In addition, the “interaction with N-terminal domain of MDM2” value in test [6] is recorded as “very tight”.

The substance “p53 N-terminal transactivation domain, TAD-(1–93) (from UniProt P04637 1-93) (domain or fragment)” had a pKd in test [7] below 4.00.
